Assay results taken from the DeepSol protein solubility set.

Test: soluble on expression in E. coli; label from the status in PepcDB or PDB records

Sequence	soluble on expression in E. coli
MSLKNSMTILDAIRALDDPTRLRIMRLLASMELAVGEVAQVLGQSQPRVSRHIKILCDSGLAERRKEGAWVFLRSSIGEGAESPLASALARLLAVAEHEDTAFGRRCSEDRQHLDAIRSSRESHALEWFARHADEWDELRSLHIADGPVEAALTEMLLALSGDGSLGRLLDVGTGTGRIAELFAPNAAHVVAFDKSPDMLRIARARLQHLPADAVELVQGDFAQLPFAARSFDTVLFHQVLHYAQAPEAVLAGAARVTAPGGRVAIVDFAAHEREDLRQTHAHARLGFSDAQIETMLLDAGFIPHETRALAGHELVVKLWTAVRREDSVTQLEPRQKSSSGKTEGHHHHHH	soluble
MYKPITFSLKYIFKTAGKVEVQGREKLPEGGPYVVACTHTSFMDVLMLATGMYPTEIHYMAKKELFEGKFKNWFFKNVNAFPVDRANPGPSTLKIPSRLLKEGKVVGIFPSGTRSTEDVSLKAGAVTIAMRSNVPLIPAAYIGPSSVKELIKGKRAQLIFGDPIQIDAEEQIDRKTAMKMMTDQLNEKFEGLKEALQSNQK	not soluble
SNAMKEKVVIITGGSSGMGKGMATRFAKEGARVVITGRTKEKLEEAKLEIEQFPGQILTVQMDVRNTDDIQKMIEQIDEKFGRIDILINNAAGNFICPAEDLSVNGWNSVINIVLNGTFYCSQAIGKYWIEKGIKGNIINMVATYAWDAGPGVIHSAAAKAGVLAMTKTLAVEWGRKYGIRVNAIAPGPIERTGGADKLWISEEMAKRTIQSVPLGRLGTPEEIAGLAYYLCSDEAAYINGTCMTMDGGQHLHQYPF	soluble
MAFNQRTVVMIGPGEHYVTAKNEVIKTLLGSCVAVCLYDPKAQVIGMNHFLLAADRRKFTHFLDSRAGYYGVHAMEILINAMLKRGAQRKYLQSKIFGGANVLSLCADNILNHYDIGGMNIDFVRHFLQRERIPIISEDIGGHCGRVIYFDPTDYSVYRSLIEHKYEEIASLQDEEYRYFNQASEDIHSSGVPVVIWSD	soluble
EVLPNFAENARPIEGKKPYTVLQLAGRAVYIKDSCNACHSQLIRPFKSETDRYGMYSVSGEFAYDRPFLWGSKRTGPDLARVGNYRTADWHENHMWDPTSVVPDSIMPSYKHMFKNNADIETAYAEALTVKKVFNVPYDAENGTKLGSWEDAQAEVKAEAQAIVDQMKNQEVKDAFAKGEIKEIVALIAYLNSLK	not soluble
MSNPYPKQEVTLMLHTANPVIKHKAGLLNLAEELSNVSKACKIMGVSRDTFYRYRELVAEGGVDAQINRSRRAPNLKNRTDEATEQAVVDYAVAFPTHGQHRASNELRKQGVFISDSGVRSVWLLHNLENLKRRYLEHHHHHH	not soluble
MSGAVLPAVLVVPKMESVVVPIAESTVINAKDTTPSTAADNDVSPSPSEPDTDAIKMFVGQIPRQWNETDCRRLFEKYGSVFSCNILRDKSTQASKGCCFVTFYHRKDAIEAQGALHNIKVIEGMHHPVQMKPADTENRNERKLFIGQLSKKHNEENLREIFAKFGHIEDCSVLRDQDGKSRGCAFVTFTNRSCAVVATKEMHHSQTMEGCSAPLVVKFADTQKDKDVKTKSMITGSGAGSPKGGAASLLQNLNPALLQQLGGGQNYQAVASLLSLINGQQGQQQQHQQQQNVLGILGTVLSALGKLTEGGDDASAKSSSEKPRHQALMTSPAPTATSSTSSSASHHHQQHQQQLSQQQQQQQHPQQQGLGNPLLGNPAMAAQNQFDAITMAQIAHQQQMLALQGFAVQQGAPSQQQQGLAGGMAGAKTTSPVAASLANHQQIALTPFAGGAAALDHFQAMQQYALLANLQATGGVGVQATTSAAQMVGNGDVKGPDGANLFIYHLPQDFGDSDLINTFAPFGGILSAKVFIDKVTNLSKCFGFVSYENAQSATNAISAMNGFQIGSKRLKVQLKVDRGNPYNR	not soluble
MPRLVVNSIYASGAQYQGSSSKLYVNVSNLGTENAYNVLIQVYVNGKVYGSTTVSEIKAGASDNVSINWVPPTSGKVSVYATASVNSEPRSFVTAGALTQTVSVNPLEHHHHHH	not soluble
MGKFFFFGFVGLLLSWGALYYRYSDEKNTSARKYRFDPPPALVGNLFINAGLEKAEHILDGKIVGPESMVVDDEAIYVSVNDAKVLKIVDGRVVSKASYSEKSKFFPDCGHFDTEPECGRPLGIRRLVAGKPKFVVCDAYLGVYIVDFTDEQNPISTQILDSKVPIDGLKPRFLNDLDVISEDELIISDSSTRHDRRHFMAAILEHQADGRIFHLKISTKSVKVLADKLYFPNGIQLTEDKKSVIFAECSMARIKKLTIASKKVEMFAANLPGLPDNIRSSGRGTYWVGLTATRSATHPSLLDRLGSLPGIRQFLVDIVPGPYWKPLLGLFKNPHSIIIELDSVGKIVRSLHDVTGKHVGDASQVTEHNGHLYIGSFADHYIAKVKL	not soluble
MRIAAAVVSIGLAVIAGFAVPVADAHPSEPGVVSYAVLGKGSVGNIVGAPMGWEAVFTRPFQAFWVELPACNNWVDIGLPEVYDDPDLASFNGATTQTSATDQTHLVKQAVGVFASNDAADRAFHRVVDRTVGCSGQTTAIHLDDGTTQVWSFAGGPSTGTDEAWTKQEAGTDRRCFVQTRLRENVLLQAKVCQSGNAGPAVNVLAGAMQNTLG	soluble
MGSDKIHHHHHHMQRDLGKNVKLFNDIKADDLSVMLSCLGVKNQQYEKRSIIIMAEDNVDHVGVVLRGAVLIVKEDFSGNRSIVDHIGQYEMFGEAFACAGIQKSPVTVVAAEKSEIMWIQFRRIFNTCSMSCVFHAKLIENMMKVLAVKNLQMNQKLEITSKRNLRDKLMAYLLIQAKEAKSFDFIIPLNRSELADYLYVDRSALSRELCKMRDEGLIEFKKNHFCMSPM	not soluble
MAHHHHHHMGGFSSKNMEYYNYASMKLLDRSKYINEEEEEDDYHYCKETDIRETIKKAREIKNCNYKESMDLYIKALKTLKKLKENNSRIYRNVLEFEIRPQEIANSMSLKNSLEKNMYMKKEGDKDYTGGPSNDNQTISINNKIASLYNEIADLCCIHDFIEKSLFYYDKACSYNPSKIDYIYKKGVLFQQMNDTERAINTFKIILSSEPNHIPTLFSLGNLYRYIDNHIALSYFEAILKIEPNNTEVLSLIASCYDNLGKLNEAISYQNKAVQIDPDNFNHKKFAQRLIEMKSHN	not soluble
AALDDLIDTLGECEDTNKDDPPYTGPVVLDPMDSTYLEALGIKEGTIPPEYRKLLEKNEAITGPLPDSPKPMGIDHAIDALSSDFT	soluble
MSLAKNRLRAIPLGGAGEVGRNMWVLEQNDEILVLDCGVMFPEADMLGVDLVLPDITYLRDQKDKIKAIVLTHGHEDHIGAVPYLVPELDFPPIYGTPLTLGMLAGKLKEHRLLDRARLVKMQAGESFTVGSFTIEPFSVAHSIPDTVGLAIDTPVGLAIYLTDWKFDHTPVDGRPTDLVKLSELGRRSPLLLITDCVRVESKGYTPSEQVVGEAFDSIFATAPGRIIVATFASNVSRVQQVIDSAEAYGRKVVVAGRSMENTTRIALELGYLRAQQGTLIRPQEAAGLADDQVAVICTGSQGEPMSALARMANRDYPHVKIKEGDTVVVSATPIPGNEVSVNRVINNLFRLGAEVIYGGSPSSLAVHVSGHAAQEELKMALAILRPEFVVPFHGDYRHMMLYRKLALGMGGLFSESNVIIPENEGHHHHHH	not soluble
MTEITHRTKTRPVKVGNLTIGGNNEVVVQSMTTTKTHDVEATVAEIKRLEEAGCQVVRVACPDMRAAEAIPAIKKQISIPLVVDIHFDYKLALKAIEGGADKIRINPGNIGKRHKVEAVVKAAKEKGIPIRIGVNAGSLEKRILDKYGYPTADGMVESALHHIKILEDLDFHDIIVSMKASDVNLAIEAYEKAAKAFDYPLHLGITESGTLFAGTVKSAAGLGAILNMGIGNTVRVSLSADPVEEVKVARELLKSFGLASNAATLISCPTCGRIEIDLISIANEMEEYISKIRAPIKVAVLGCAVNGPGEAREADIGIAGARGEGLLFRKGEIVRKVPEETMVEELKKEIDKIAEEYFAKQKELEKALEHHHHHH	soluble
GMTKLPATSDIYISFFMFTTNLQPDNLDYRRIVVAHIKKLQRFGYSGFEFPIAPGLPENYAQDLENYTNLRHYLDSEGLENVKISTNVGATRTFDPSSNYPEQRQEALEYLKSRVDITAALGGEIMMGPIVIPYGVFPTTDFNEPIWSDELQEHLKVRYANAQPILDKLGEYAEIKKVKLAIEPITHWETPGPNKLSQLIEFLKGVKSKQVGVVIDSAHEILDGEGPEIFKTQVEYLAQQGRLHYVQVSPPDRGALHTSWLPWKSFLTPIVKVYDGPIAVEIFNAIPAFTNSLRLTRRKFWIPDEDPPNQYPNAYDIADEAIKVTRKELKKIGSK	soluble
MGSDKIHHHHHHMLQLNSPHVHNLFNTPFSAAIMDDVVIGLEVHVQLNRLRTKLFCSCPLNYHQSPPNTHVCPVCLGMPGAMPVINKEAVKAAVKVAMALNAEIQPFTVFDRKNYFYPDLPKGFQISQYDRPLALGGYVTIELDGQEKRIQLKRVHMEEDPGKLSYKGSITTAKYSLIDYNRSGAPLLEIVTEPVMNSPKEARLFLNKLRMILEYLEVFDGDLEGAMRVDANISIRGSGRVEIKNISSFKGVEKALSYEIMRQKNLLQRGRSVVRETRHFDEARNITVSLRSKEEEQDYRYFPEPDLVPVLTEEIVREVEGTLPEMPEEKRERLKRQYGIGDNFAKVLILDVKMADYFEEVAKLVDPKLAASWIVDVLRGELNYRDWSFAKCWEVFKPEEFAKLLKYFEEDRITEKGVVEVIRTKLDEGGEIDAIIQKKGLFAIPKEEIIKFCKEAIEENPKAVEDYLSGKRQALNFLVGQVMKKTRGRADPADTAKLIEEMLS	not soluble
MLDKTRLRIAMQKSGRLSDESQELLSRCGIKINLQQQRLIAFAENMPIDILRVRDDDIPGLVMDGVVDLGIIGENVLEEELLNRRAQGDDPRYFTLRRLDFGGCRLSLAAPLDAEYTGPQCLQDTRIATSYPHILKQYLDKQGVRFKSCLLNGSVEVAPRAGLADAICDLVSTGATLEANGLREVEVIYRSKACLIQRDGEMSVDKQQLIDRLMTRIQGVIQARESKYIMMHAPSERLDEIITLLPGAERPTILPLAGDKSRVAMHMVSSETLFWETMEKLKALGASSILVLPIEKMME	not soluble
MNDSTCPRPCLMKLDLQSSTNKLAFLKDNWPSFGQIESIDRLSETELRCTLCLLDVVLAALAKDECFCPNREIIRLVLTRTYVQNRCELCETEEIRSKLMKGFCTWEKKNGLSRKNEIRRRGISVFYGAILRMLSKVNGKQE	not soluble
MSEMTPREIVSELDQHIIGQADAKRAVAIALRNRWRRMQLQEPLRHEVTPKNILMIGPTGVGKTEIARRLAKLANAPFIKVEATKFTEVGYVGKEVDSIIRDLTDSAMKLVRQQEIAKNRARAEDVAEERILDALLPPAKNQWGEVENHDSHSSTRQAFRKKLREGQLDDKEIEIDVSAGVSMGVEIMAPPGMEEMTNQLQSLFQNLGSDKTKKRKMKIKDALKALIDDEAAKLINPEELKQKAIDAVEQNGIVFIDEIDKICKKGEYSGADVSREGVQRDLLPLVEGSTVSTKHGMVKTDHILFIASGAFQVARPSDLIPELQGRLPIRVELTALSAADFERILTEPHASLTEQYKALMATEGVNIAFTTDAVKKIAEAAFRVNEKTENIGARRLHTVMERLMDKISFSASDMNGQTVNIDAAYVADALGEVVENEDLSRFIL	soluble
SVCKGVSGNPAKGEVFLYKHVNFQGDSWKVTGNVYDFRSVSGLNDVVSSVKVGPNTKAFIFKDDRFNGNFIRLEESSQVTDLTTRNLNDAISSMIVATFESA	soluble
MMELETGQCTIMELKKENVKELAQVFKTVAFKDTGTWHASEAGMKITVDDGSYQLASVFINPAFFSSFKVREEIVSMKISIKSISEFLSISENSSSSVKVSYPGMFQPVKMLVEDADGWVARGNFTTTLADQELDFEFDDAGVLATYLLKTQVLKEIIKDFDDTSRTVRIQFTKNSLCFTTFGDVGETTVSIPSRSLQMESVKCLEEVEFSYLLSLIQRMTTAFILATKLILRVDERGVLSCQFSIDHGEGNASYIEFLTVPADEEE	not soluble
